These results are taken from paper PMC8716947.

For the series, the system named is T1, KguR (MBP-KguR-His6) (Escherichia coli (uropathogenic, CFT073)), ORF:aaa0ecb8.
T1 sequence: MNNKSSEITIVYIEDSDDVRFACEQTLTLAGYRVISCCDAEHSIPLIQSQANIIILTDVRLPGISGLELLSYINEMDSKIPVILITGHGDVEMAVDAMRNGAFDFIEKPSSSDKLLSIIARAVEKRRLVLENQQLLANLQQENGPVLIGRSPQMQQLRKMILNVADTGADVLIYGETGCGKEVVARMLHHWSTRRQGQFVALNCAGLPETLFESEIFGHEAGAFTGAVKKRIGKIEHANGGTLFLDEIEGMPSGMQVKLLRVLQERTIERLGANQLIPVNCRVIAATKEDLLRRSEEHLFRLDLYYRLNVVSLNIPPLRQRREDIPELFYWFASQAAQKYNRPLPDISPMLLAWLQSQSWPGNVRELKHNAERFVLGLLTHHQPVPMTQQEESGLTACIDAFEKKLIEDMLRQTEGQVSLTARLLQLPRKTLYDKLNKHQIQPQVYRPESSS
In words: EMSA. (In general: In EMSA bound probe runs differently from free probe, usually more slowly.)

As to “CATTCATCATCCATTGAATGCATTTATATTTATCATCAGTATATTCCCTGAACAATGTTTGCGAGAACCAAAAGAGTGCCATTGTGTGAATGTGTAAGCAGAATAACCGTGGCAATGTGTGGTTTATCGCACAGGTATTCCAAATGTGATCATGCTCTTTTTATGTGACAAATCCGCAGATAATCCTTCCTTTCCCCCGCGGTTGGCGTTATGGTCAGATGGTT (double strand) [PkguS]”, the binding entry is given as “binds”.
